From PMC10147923, “Pain-causing stinging nettle toxins target TMEM233 to modulate NaV1.7 function” (Nature Communications, 2023)
Several values for one entry are separate records, joined by “and”; a condition that tells them apart may be missing. Equal entries are not always repeated. Where two headings read alike, the source gives them in different places.

Assays:
Type in all cases: cell-based
NaV1.7 [1] = biological target: T1, NaV1.7 (Homo sapiens, UniProt Q15858); test: Effect of TMEM233 co-expression on use-dependence; details: Fig 6l; for Use-dependence, predicted (LS) mean: n = 6
T1 sequence (Q15858 whole entry): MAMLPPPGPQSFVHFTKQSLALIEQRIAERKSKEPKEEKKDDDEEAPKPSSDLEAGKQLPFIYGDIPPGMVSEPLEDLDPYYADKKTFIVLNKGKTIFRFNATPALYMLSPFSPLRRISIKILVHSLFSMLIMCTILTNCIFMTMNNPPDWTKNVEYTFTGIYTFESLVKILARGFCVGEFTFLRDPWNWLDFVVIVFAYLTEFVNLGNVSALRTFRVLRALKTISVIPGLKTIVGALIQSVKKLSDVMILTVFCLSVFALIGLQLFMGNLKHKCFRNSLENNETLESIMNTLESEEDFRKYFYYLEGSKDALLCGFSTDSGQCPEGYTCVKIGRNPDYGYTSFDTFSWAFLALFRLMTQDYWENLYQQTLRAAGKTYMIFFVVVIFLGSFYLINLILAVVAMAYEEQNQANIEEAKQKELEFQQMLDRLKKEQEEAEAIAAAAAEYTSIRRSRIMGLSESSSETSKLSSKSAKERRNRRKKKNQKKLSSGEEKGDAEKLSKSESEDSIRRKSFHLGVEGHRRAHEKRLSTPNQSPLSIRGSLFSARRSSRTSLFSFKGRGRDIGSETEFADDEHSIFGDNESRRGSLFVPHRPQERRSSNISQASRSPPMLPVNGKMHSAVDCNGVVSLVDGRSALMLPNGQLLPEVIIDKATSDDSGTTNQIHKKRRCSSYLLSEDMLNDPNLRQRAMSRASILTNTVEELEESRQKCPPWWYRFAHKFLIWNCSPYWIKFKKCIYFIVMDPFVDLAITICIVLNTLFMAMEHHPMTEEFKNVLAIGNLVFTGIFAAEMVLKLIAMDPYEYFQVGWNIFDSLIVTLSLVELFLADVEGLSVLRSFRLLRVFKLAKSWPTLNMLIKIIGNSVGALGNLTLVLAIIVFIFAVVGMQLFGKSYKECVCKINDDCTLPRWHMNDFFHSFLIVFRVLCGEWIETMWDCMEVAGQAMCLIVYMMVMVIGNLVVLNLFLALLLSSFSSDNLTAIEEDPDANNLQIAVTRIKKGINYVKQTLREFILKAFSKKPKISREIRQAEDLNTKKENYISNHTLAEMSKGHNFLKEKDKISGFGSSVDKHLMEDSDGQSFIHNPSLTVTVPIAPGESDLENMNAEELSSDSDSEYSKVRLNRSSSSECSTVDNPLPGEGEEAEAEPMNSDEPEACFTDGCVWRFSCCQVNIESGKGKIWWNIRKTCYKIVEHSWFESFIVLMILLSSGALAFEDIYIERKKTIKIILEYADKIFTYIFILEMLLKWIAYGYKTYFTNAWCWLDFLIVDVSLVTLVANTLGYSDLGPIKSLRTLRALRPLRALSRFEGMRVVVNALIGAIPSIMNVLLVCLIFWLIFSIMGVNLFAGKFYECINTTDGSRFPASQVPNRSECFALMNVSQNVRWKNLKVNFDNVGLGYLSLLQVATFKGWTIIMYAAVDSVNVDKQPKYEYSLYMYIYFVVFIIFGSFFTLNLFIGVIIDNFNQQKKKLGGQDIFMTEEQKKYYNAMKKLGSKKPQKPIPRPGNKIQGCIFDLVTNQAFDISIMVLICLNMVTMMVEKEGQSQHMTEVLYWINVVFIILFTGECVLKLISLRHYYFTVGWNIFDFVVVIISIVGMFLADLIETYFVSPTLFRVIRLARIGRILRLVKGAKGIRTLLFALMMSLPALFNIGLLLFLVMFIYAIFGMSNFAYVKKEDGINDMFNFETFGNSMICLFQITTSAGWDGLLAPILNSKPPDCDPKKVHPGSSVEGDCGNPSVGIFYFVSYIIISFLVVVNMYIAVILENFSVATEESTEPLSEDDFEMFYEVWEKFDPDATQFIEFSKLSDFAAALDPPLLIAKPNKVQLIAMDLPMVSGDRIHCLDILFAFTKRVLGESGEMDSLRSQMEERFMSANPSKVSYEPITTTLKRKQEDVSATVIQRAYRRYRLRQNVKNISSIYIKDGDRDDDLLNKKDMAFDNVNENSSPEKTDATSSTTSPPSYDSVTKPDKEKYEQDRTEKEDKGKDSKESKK
T1 sequence (Q07699 19-218, further chain): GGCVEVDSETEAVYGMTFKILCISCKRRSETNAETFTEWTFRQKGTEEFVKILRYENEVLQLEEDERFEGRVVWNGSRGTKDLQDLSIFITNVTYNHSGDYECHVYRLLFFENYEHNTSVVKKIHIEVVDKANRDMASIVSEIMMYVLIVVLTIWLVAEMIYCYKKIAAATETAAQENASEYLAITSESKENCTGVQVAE
Experimental: Use-dependence experiments were performed on the Patchliner Quattro (Nanion Technologies GmbH, Munich, Germany) using an EPC 10 USB Quadro Patch Clamp Amplifier (HEKA Elektronik GmbH, Lambrecht/Pfalz, Germany) and PatchControlHT 2.01.30 and PatchMaster v2x90.4 beta softwares (HEKA Elektronik GmbH, Lambrecht/Pfalz, Germany). Cells at approximately 70–80% confluency were harvested from T75 flasks using Accutase (Thermofisher, Massachusetts, USA) at room temperature for 2–5 min and resuspended in high-glucose Dulbecco’s Modified Eagle Medium (DMEM) (Sigma-Aldrich, New South Wales, Australia) with 15 mM HEPES (Sigma-Aldrich, NSW, Australia) prior to recovery in the cell hotel of the Patchliner for 10 min. ECS contained (in mM): NaCl 140, KCl 4, CaCl2 2, MgCl2 1, HEPES 10, glucose 5. The pH was adjusted to 7.4 with NaOH, and the osmolarity was 298 mOsm. ICS contained (in mM): CsCl 50, NaCl 10, CsF 60, EGTA 20, HEPES 10. The pH was adjusted to 7.2 with CsOH, and the osmolarity was 285 mOsm. A seal enhancer was used containing (in mM): NaCl 80, KCl 3, MgCl2 10, CaCl2 35, HEPES Na^+ salt 10. The pH was adjusted to 7.4 with HCl, and the osmolarity was 298 mOsm. The seal enhancer was washed off before starting the experiments. HEK293 cells stably expressing hNaV1.7/ β1 or hNaV1.7/ β1/C-HA TMEM233 were used. Consecutive series of 30 depolarizing 20 ms pulses from −90 mV to −20 mV were applied with frequencies of 1 Hz, 2 Hz, 5 Hz, 10 Hz, and 20 Hz. After the experiment ExTxA (100 nM) was applied to confirm TMEM233 expression. The amplitude of the test current was normalized to the current induced by the first pulse of its series, with the last test pulse plotted as a function of frequency for statistical analysis.

NaV1.7 [2] = biological target: T1, NaV1.7
Experimental: To determine recovery from fast inactivation, a 20 ms pulse to 0 mV from a holding potential of −90 mV was used to induce fast inactivation. A subsequent recovery period, ranging from 1 ms to 2216 ms in 50% increments at −90 mV, was followed by a last 20 ms test pulses to 0 mV to determine the time-dependence of recovery from fast inactivation. The proportion of available channels was determined by normalizing peak currents from the last to the first pulse. A two-phase exponential equation was fit to the normalized current, plotted as a function of time, to determine the time constants τ1 and τ2 of recovery from fast inactivation.

TMEM233 = TMEM233 (Homo sapiens, UniProt B4DJY2); test: Currents in Cos-1 cells transfected with TMEM233 only
Experimental: Whole-cell patch clamp experiments involving HEK293, COS-1, CHO, ND7/23, F11, SH-SY5Y and TE-671 cells were performed on a QPatch II automated electrophysiology platform (Sophion Bioscience, Ballerup, Denmark) as previously described. Cells at approximately 70–80% confluency were harvested from T75 flasks using TrypLE Express at 37 °C for 2–5 min and resuspended in DMEM with 25 mM HEPES (Sigma-Aldrich, NSW, Australia), 100 U/mL Penicillin-Streptomycin (Gibco) and 40 µg/mL trypsin inhibitor from Glycine max (soybean) (Sigma Aldrich) prior to recovery on a QStirrer (Sophion) for 30 min. 16-channel patch plates with a patch hole diameter of 1 μm and resistance of 2 ± 0.02 MΩ were used. Cell positioning and sealing parameters were as follows: positioning pressure −60 mbar, minimum seal resistance 0.1 GΩ, holding potential −100 mV, holding pressure −20 mbar. Whole-cell currents were filtered at 5 kHz and acquired at 25 kHz. Series resistance compensation was used and set to 70%.

NaV1.7 [3] = biological target: T1, NaV1.7; remark: listed apart in the source
Experimental: To determine the voltage dependence of slow inactivation, HEK293-NaV1.7 cells were held at −120 mV and peak current determined by an initial 20 ms pulse to 0 mV. Following a series of 15,000 ms step pulses ranging from −120 to 0 mV in 20 mV increments, a subsequent 50 ms test pulse to 0 mV, preceded by a 50 ms step to −120 mV to remove fast inactivation, was used to determine the remaining current. The proportion of slow-inactivated channels was determined by normalizing peak current from the test pulse to the initial depolarization. A Boltzmann equation was fit to the current data, plotted as a function of voltage, to determine the V50 as well as the minimum proportion of activatable channels.

NaV1.7 [4] = biological target: T1, NaV1.7; details: Fig 6d
Experimental: Current-voltage (IV) curves were determined in HEK-NaV1.7 cells, in the absence and presence of TMEM233, from a series of step pulses (500 ms) ranging from −110 to +55 mV (5 mV increments, repetition interval 5 s) before and after incubation with ExTxA (1 μM) from a holding potential of −90 mV. Currents were converted to conductance (G) using G = I/(V − Vrev), with Vrev being the reversal potential, plotted against voltage and fitted with a Boltzmann equation to obtain GV (conductance-voltage) curves. Voltage dependence of steady-state fast inactivation was determined by a subsequent 10 ms pulse to −20 mV immediately following the 500 ms depolarization step detailed above to assess the available non-inactivated channels.

B1: TMEM233 (protein)
chain: MSQYAPSPDFKRALDSSPEANTEDDKTEEDVPMPKNYLWLTIVSCFCPAYPINIVALVFSIMSLNSYNDGDYEGARRLGRNAKWVAIASIIIGLLIIGISCAVHFTRNA
Use-dependence, predicted (LS) mean diff. (NaV1.7 - NaV1.7 + TMEM233) (NaV1.7 [1]; 1 Hz, Šídák's adjusted P >0.9999, 95% CI -0.1024 to 0.1060): 0.001783
Use-dependence, predicted (LS) mean diff. (NaV1.7 - NaV1.7 + TMEM233) (NaV1.7 [1]; 2 Hz, Šídák's adjusted P 0.9266, 95% CI -0.07138 to 0.1370): 0.0328
Use-dependence, predicted (LS) mean diff. (NaV1.7 - NaV1.7 + TMEM233) (NaV1.7 [1]; 5 Hz, Šídák's adjusted P 0.8365, 95% CI -0.06345 to 0.1449): 0.04074
Use-dependence, predicted (LS) mean diff. (NaV1.7 - NaV1.7 + TMEM233) (NaV1.7 [1]; 10 Hz, Šídák's adjusted P 0.4449, 95% CI -0.04066 to 0.1677): 0.06353
Use-dependence, predicted (LS) mean diff. (NaV1.7 - NaV1.7 + TMEM233) (NaV1.7 [1]; 20 Hz, Šídák's adjusted P 0.0161 (*), 95% CI 0.01628 to 0.2247): 0.1205
Use-dependence, predicted (LS) mean (NaV1.7 [1]; NaV1.7 + TMEM233, 1 Hz, NaV1.7 0.9861, n = 8): 0.9843
Use-dependence, predicted (LS) mean (NaV1.7 [1]; NaV1.7 + TMEM233, 2 Hz, NaV1.7 0.9649, n = 8): 0.9321
Use-dependence, predicted (LS) mean (NaV1.7 [1]; NaV1.7 + TMEM233, 5 Hz, NaV1.7 0.9335, n = 8): 0.8928
Use-dependence, predicted (LS) mean (NaV1.7 [1]; NaV1.7 + TMEM233, 10 Hz, NaV1.7 0.8933, n = 8): 0.8298
Use-dependence, predicted (LS) mean (NaV1.7 [1]; NaV1.7 + TMEM233, 20 Hz, NaV1.7 0.8046, n = 8): 0.6842
Tau (Fast) RFFI, individual values (NaV1.7 [2]): 7.679
Tau (Fast) RFFI, mean (NaV1.7 [2]; Fig 6i, NaV1.7/β1/TMEM233, mean of n = 18, NaV1.7/β1 (Mock) mean 6.695, n = 8): 9.635
Tau (Fast) RFFI, individual values (NaV1.7 [2]; Fig 6i, NaV1.7/β1/TMEM233, single replicates): 8.086 and 8.074 and 13.19 and 9.314 and 15.71 and 7.639 and 9.188 and 12.89 and 5.959 and 5.962 and 16.54 and 10.99 and 8.961 and 6.569
Tau (Fast) RFFI, difference between means (Mock - TMEM233) ± SEM (NaV1.7 [2]; Fig 6i, unpaired t test P = 0.0236, 95% CI -5.450 to -0.4305): -2.940 ± 1.216
Tau Fast, mean (NaV1.7 [2]; Fig 6m, co-expression with NaV1.7/β1, mean of n = 7, NaV1.7/β1 mean 6.051, n = 16): 10.53
Tau Fast, individual values (NaV1.7 [2]; Fig 6m, co-expression with NaV1.7/β1, single replicates): 9.314 and 15.71 and 7.639 and 8.588 and 10.41 and 9.188 and 12.89
Tau Fast, mean diff. NaV1.7/β1/TMEM233 vs. NaV1.7/β1 (NaV1.7 [2]; Fig 6m, Tukey's adjusted P 0.0002, 95% CI 2.091 to 6.876): 4.484
Tau Fast, mean diff. vs. NaV1.7/β1/TMEM233 35-109 (NaV1.7 [2]; Fig 6m, Tukey's adjusted P 0.0026, 95% CI 1.415 to 7.059): 4.237
Peak Current, difference between means (COS-1 TMEM233 - COS-1) ± SEM (TMEM233): 55.71 ± 37.05
Peak Current, individual values (TMEM233): -254.824 and -273.19 and -178.816 and -233.506 and -232.738 and -200.138
Peak Current, mean (TMEM233): -228.9
Bottom (Boltzmann sigmoidal, best-fit value) (NaV1.7 [3]): 0.2301
Slope (Boltzmann sigmoidal, best-fit value) (NaV1.7 [3]): -7.153
Top (Boltzmann sigmoidal, best-fit value) (NaV1.7 [3]): 1.031
V50 (Boltzmann sigmoidal, best-fit value) (NaV1.7 [3]): -65.56 mV
V50, mean (NaV1.7 [3]; Fig. 6g, NaV1.7/β1/TMEM233, mean of n = 13, NaV1.7/β1 (Mock) mean -59.66, n = 11): -65.18
V50, individual values (NaV1.7 [3]; Fig. 6g, NaV1.7/β1/TMEM233, single replicates): -60.38 and -71.19 and -68.09 and -76.79 and -71.43 and -68.52 and -59.19 and -60.32 and -58.12 and -54.99 and -67.1 and -64.07 and -67.16
V50, difference between means (TMEM233 - Mock) ± SEM (NaV1.7 [3]; Fig. 6g, unpaired t test P = 0.0108, 95% CI -9.637 to -1.412): -5.524 ± 1.983
V50 of Activation (NaV1.7 [4]; Nav1.7/β1/TMEM233, HEK, individual cells, one line each (n = 11)): -31.12 and -24.58 and -26.49 and -27.4 and -28.15 and -19.85 and -25.7 and -20.24 and -36.47 and -27.6 and -24.5
V50 of Activation, mean (NaV1.7 [4]; Nav1.7/β1/TMEM233, HEK, mean, n = 11): -26.55
V50 of Activation, difference between means (B - A) ± SEM (NaV1.7 [4]; Nav1.7/β1/TMEM233 minus Nav1.7/β1 (Mock), unpaired t test, P value 0.8489): -0.4462 ± 2.301
